Data: article PMC10454580, “Exploring the Binding Affinity of the ARR2 GARP DNA Binding Domain via Comparative Methods”

What was measured:
Conditions in all cases: protein: recombinant; tags: N-terminal 8xHis-MBP; label: 5' biotin on antisense strand (DPI-ELISA); 5' Alexa647 on antisense strand (FCS); unlabeled (MST); blunt
[1] = biological target: T1, His8-MBP-GARP2 (ARR2 GARP DNA-binding domain) (UniProt Q9ZWJ9 211-275); assay: MST; thermophoresis 43/3; bounds 260.4-960.9; MST: PBS-T, 250 nM protein, 25 nM RED-tris-NTA, 40% MST power, 22-26 C; FCS: PBS, 25 C; qDPI-ELISA: TBS/TBS-T (20 mM Tris, 0.18 M NaCl, pH 7.5, 0.1% Tween-20)
T1 sequence: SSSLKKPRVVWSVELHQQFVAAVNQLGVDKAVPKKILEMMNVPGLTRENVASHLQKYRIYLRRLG

[2] = biological target: T1, His8-MBP-GARP2 (ARR2 GARP DNA-binding …); assay: MST; thermophoresis 44/3; bounds 229.7-868.7; MST: PBS-T, 250 nM protein, 25 nM RED-tris-NTA, 40% MST power, 22-26 C; FCS: PBS, 25 C; qDPI-ELISA: TBS/TBS-T (20 mM Tris, 0.18 M NaCl, pH 7.5, 0.1% Tween-20)
[3] = biological target: T1, His8-MBP-GARP2 (ARR2 GARP DNA-binding …); assay: MST; inverse T-jump 6/5; bounds 471.3-1412.8; MST: PBS-T, 250 nM protein, 25 nM RED-tris-NTA, 40% MST power, 22-26 C; FCS: PBS, 25 C; qDPI-ELISA: TBS/TBS-T (20 mM Tris, 0.18 M NaCl, pH 7.5, 0.1% Tween-20)
[4] = biological target: T1, His8-MBP-GARP2 (ARR2 GARP DNA-binding …); assay: MST; thermophoresis 49/3; bounds 200.6-1912.2; MST: PBS-T, 250 nM protein, 25 nM RED-tris-NTA, 40% MST power, 22-26 C; FCS: PBS, 25 C; qDPI-ELISA: TBS/TBS-T (20 mM Tris, 0.18 M NaCl, pH 7.5, 0.1% Tween-20)
[5] = biological target: T1, His8-MBP-GARP2 (ARR2 GARP DNA-binding …); assay: MST; thermophoresis 42/3; bounds 259.5-988.2; MST: PBS-T, 250 nM protein, 25 nM RED-tris-NTA, 40% MST power, 22-26 C; FCS: PBS, 25 C; qDPI-ELISA: TBS/TBS-T (20 mM Tris, 0.18 M NaCl, pH 7.5, 0.1% Tween-20)
[6] = biological target: T1, His8-MBP-GARP2 (ARR2 GARP DNA-binding …); assay: MST; thermophoresis 41/3; bounds 250.9-787.3; MST: PBS-T, 250 nM protein, 25 nM RED-tris-NTA, 40% MST power, 22-26 C; FCS: PBS, 25 C; qDPI-ELISA: TBS/TBS-T (20 mM Tris, 0.18 M NaCl, pH 7.5, 0.1% Tween-20)
[7] = biological target: T1, His8-MBP-GARP2 (ARR2 GARP DNA-binding …); assay: MST; thermophoresis 46/3; bounds 192.7-1173.8; MST: PBS-T, 250 nM protein, 25 nM RED-tris-NTA, 40% MST power, 22-26 C; FCS: PBS, 25 C; qDPI-ELISA: TBS/TBS-T (20 mM Tris, 0.18 M NaCl, pH 7.5, 0.1% Tween-20)
[8] = biological target: T1, His8-MBP-GARP2 (ARR2 GARP DNA-binding …); assay: MST; thermophoresis 47/3; bounds 202.0-1474.6; MST: PBS-T, 250 nM protein, 25 nM RED-tris-NTA, 40% MST power, 22-26 C; FCS: PBS, 25 C; qDPI-ELISA: TBS/TBS-T (20 mM Tris, 0.18 M NaCl, pH 7.5, 0.1% Tween-20)
[9] = biological target: T1, His8-MBP-GARP2 (ARR2 GARP DNA-binding …); assay: MST; back diffusion 8/7; bounds 61.0-374.4; MST: PBS-T, 250 nM protein, 25 nM RED-tris-NTA, 40% MST power, 22-26 C; FCS: PBS, 25 C; qDPI-ELISA: TBS/TBS-T (20 mM Tris, 0.18 M NaCl, pH 7.5, 0.1% Tween-20)
[10] = biological target: T1, His8-MBP-GARP2 (ARR2 GARP DNA-binding …); assay: MST; thermophoresis 45/3; bounds 218.2-1077.2; MST: PBS-T, 250 nM protein, 25 nM RED-tris-NTA, 40% MST power, 22-26 C; FCS: PBS, 25 C; qDPI-ELISA: TBS/TBS-T (20 mM Tris, 0.18 M NaCl, pH 7.5, 0.1% Tween-20)
[11] = biological target: T1, His8-MBP-GARP2 (ARR2 GARP DNA-binding …); assay: MST; thermophoresis 48/3; bounds 240.8-1742.8; MST: PBS-T, 250 nM protein, 25 nM RED-tris-NTA, 40% MST power, 22-26 C; FCS: PBS, 25 C; qDPI-ELISA: TBS/TBS-T (20 mM Tris, 0.18 M NaCl, pH 7.5, 0.1% Tween-20)
[12] = biological target: T1, His8-MBP-GARP2 (ARR2 GARP DNA-binding …); assay: MST; thermophoresis 410/3; bounds 211.1-2267.5; MST: PBS-T, 250 nM protein, 25 nM RED-tris-NTA, 40% MST power, 22-26 C; FCS: PBS, 25 C; qDPI-ELISA: TBS/TBS-T (20 mM Tris, 0.18 M NaCl, pH 7.5, 0.1% Tween-20)
[13] = biological target: T1, His8-MBP-GARP2 (ARR2 GARP DNA-binding …); assay: MST; T-jump region 2/1; ESP bounds 33.9-203.5; MST: PBS-T, 250 nM protein, 25 nM RED-tris-NTA, 40% MST power, 22-26 C; FCS: PBS, 25 C; qDPI-ELISA: TBS/TBS-T (20 mM Tris, 0.18 M NaCl, pH 7.5, 0.1% Tween-20)

B1: wtOligo (ARR5 promoter fragment) (dsDNA)
DNA 1: TTAACAATCTCAAAGATTTTGTAGATTGAAATACAAATCTTCTCT
DNA 2: AGAGAAGATTTGTATTTCAATCTACAAAATCTTTGAGATTGTTAA
Kd [1]: 520 ± 172 nM | Kd [2]: 462 ± 163 nM | Kd [3]: 826 ± 222 nM | Kd [4]: 660 ± 419 nM | Kd [5]: 526 ± 178 nM | Kd [6]: 456 ± 132 nM | Kd [7]: 506 ± 246 nM | Kd [8]: 578 ± 317 nM | Kd [9]: 166 ± 74.3 nM | Kd [10]: 510 ± 212 nM | Kd [11]: 679 ± 376 nM | Kd [12]: 738 ± 505 nM | Kd [13]: 93.3 ± 40.3 nM
